In paper PMC9488787:
Where two headings read alike, the source gives them in different places.

Hrq1: Hrq1-7KR (K164R, K219R, K221R, K366R, K839R, K872R, K938R)
degradation_or_half_life (ubiquitination at K164): decreases | expression_or_secretion (ubiquitination at K164): no change | degradation_or_half_life (ubiquitination at K219): decreases | expression_or_secretion (ubiquitination at K219): no change | degradation_or_half_life (ubiquitination at K221): decreases | expression_or_secretion (ubiquitination at K221): no change | degradation_or_half_life (ubiquitination at K366): decreases | expression_or_secretion (ubiquitination at K366): no change | degradation_or_half_life (ubiquitination at K839): decreases | expression_or_secretion (ubiquitination at K839): no change | degradation_or_half_life (ubiquitination at K872): decreases | expression_or_secretion (ubiquitination at K872): no change | degradation_or_half_life (ubiquitination at K938): decreases | expression_or_secretion (ubiquitination at K938): no change
